Measured values published in patent US20230287046A1, “MOLECULES TARGETING PROTEINS” (AELIN THERAPEUTICS, priority 2020, published 2023).
Where no end group is shown, it is not given here.

Experiments:
KRAS G12D mutant = target: T1, KRAS G12D mutant (Homo sapiens, UniProt P01116, G12D); experiment: In vitro translation assay with streptavidin pull-down, KRAS G12D; assay type: binding; conditions: 10 μM biotinylated pept-in, Western blot
T1 construct: made in house; host or cells: cell-free: PURExpress In Vitro Protein Synthesis Kit (New England Biolabs)
Procedure: (§1) In vitro translation assays were performed using the PURExpress® In Vitro Protein Synthesis Kit (New England Biolabs) according to the manufacturer's instructions. Briefly, linear DNA fragments containing T7 promotor and terminator sequences flanking the KRAS coding sequence were generated using PCR and purified using the MinElute PCR Purification Kit (Qiagen). 250 ng of linear DNA was subsequently used for the in vitro translation reaction, which was performed for 2 hours at 37° C. with shaking (1000 rpm). Indicated biotinylated pept-ins were mixed in the translation reactions from a 5 mM stock solution in 6M Urea to a final concentration of 10 μM. Upon completion of the translation reaction, biotinylated pept-ins were captured from the reaction mix using Streptavidin coated beads (Pierce) during 90 min at room temperature. Beads were next washed with TBS containing 0.1% Tween 20 and bound proteins were finally boiled off in 1×SDS loading dye (Bio-Rad) in TBS buffer. Proteins were resolved using Any kD 15-well Mini-PROTEAN gels (Bio-Rad) during SDS-PAGE and probed for KRAS after Western blotting using a mouse monoclonal KRAS-specific antibody (SC-30, Santa Cruz Biotechnology), which was detected with an HRP-coupled anti-mouse secondary antibody using chemiluminescence on a Bio-Rad Chemidoc MP imaging instrument. […]

G12C mutant KRAS = target: T2, G12C mutant KRAS (Homo sapiens, UniProt P01116, G12C); experiment: In vitro translation assay with streptavidin pull-down, KRAS G12C; assay type: binding; conditions: 10 μM biotinylated pept-in, Western blot
T2 construct: made in house; host or cells: cell-free: PURExpress In Vitro Protein Synthesis Kit (New England Biolabs)
Procedure: as §1

G12V mutant KRAS = target: T3, G12V mutant KRAS (Homo sapiens, UniProt P01116, G12V); experiment: In vitro translation assay with streptavidin pull-down, KRAS G12V; assay type: binding; conditions: 10 μM biotinylated pept-in, Western blot
T3 construct: made in house; host or cells: cell-free: PURExpress In Vitro Protein Synthesis Kit (New England Biolabs)
Procedure: In vitro translation assays were performed using the PURExpress® In Vitro Protein Synthesis Kit (New England Biolabs) according to the manufacturer's instructions. Briefly, linear DNA fragments containing T7 promotor and terminator sequences flanking the KRAS coding sequence were generated using PCR and purified using the MinElute PCR Purification Kit (Qiagen). 250 ng of linear DNA was subsequently used for the in vitro translation reaction, which was performed for 2 hours at 37° C. with shaking (1000 rpm). Indicated biotinylated pept-ins were mixed in the translation reactions from a 5 mM stock solution in 6M Urea to a final concentration of 10 μM. Upon completion of the translation reaction, biotinylated pept-ins were captured from the reaction mix using Streptavidin coated beads (Pierce) during 90 min at room temperature. Beads were next washed with TBS containing 0.1% Tween 20 and bound proteins were finally boiled off in 1×SDS loading dye (Bio-Rad) in TBS buffer. Proteins were resolved using Any kD 15-well Mini-PROTEAN gels (Bio-Rad) during SDS-PAGE and probed for KRAS after Western blotting using a mouse monoclonal KRAS-specific antibody (SC-30, Santa Cruz Biotechnology), which was detected with an HRP-coupled anti-mouse secondary antibody using chemiluminescence on a Bio-Rad Chemidoc MP imaging instrument.
To mimic this in vitro, we devised an in vitro translation setup producing either wild-type or mutant KRAS (G12V, G12C, G12D or G13D) in the presence of biotinylated RAS-targeting pept-ins. This allowed us to perform a streptavidin pull-down to capture the biotinylated pept-ins from the translation reaction and perform SDS-PAGE and Western blotting to probe the pulled-down fraction for the presence of KRAS. The biotinylated version of pept-in 04-004-N001, i.e. 04-004-N011, which harbours an APR window sequence derived from a wild-type APR, is predicted to target all RAS proteins independently from their mutation status.

KRAS G13D mutant = target: T4, KRAS G13D mutant (Homo sapiens, UniProt P01116, G13D); experiment: In vitro translation assay with streptavidin pull-down, KRAS G13D; assay type: binding; conditions: 10 μM biotinylated pept-in, Western blot
T4 construct: made in house; host or cells: cell-free: PURExpress In Vitro Protein Synthesis Kit (New England Biolabs)
Procedure: as §1

[1] = target: T5, mCherry-tagged KRAS G12V in HeLa cells (Homo sapiens, UniProt P01116, G12V); experiment: Cellular fluorescent imaging in HeLa cells overexpressing mCherry-tagged KRAS G12V; assay type: cell-based; conditions: 75 min after treatment
T5 construct: expressed in transfected cells; host or cells: HeLa cells transduced with lentiviral particles
Procedure: Fluorescent cellular imaging was performed using HeLa cells that were transduced with lentiviral particles carrying a construct expressing KRAS G12V labeled N-terminally with mCherry. Cells were seeded in a black Gclear® Cellstar® F-bottom 96-well plates (Greiner) in 100 μL full growth medium. […] Next, cells were fixed, washed and counterstained with the nuclear dye NucBlue™ (containing Hoechst 33342). Images were captured on a Leica confocal microscope.
To complement the co-immunoprecipitation approach, we also used a cellular imaging approach to show target engagement. To this end, we generated a HeLa cell line overexpressing mCherry-tagged KRAS G12V and FITC-labelled versions of the RAS-targeting pept-ins.

[2] = test system: SW620 human KRAS G12V colorectal cancer xenograft; experiment: In vivo SW620 xenograft model; set-up: species or system mouse; conditions: three times per week
Procedure: Female NCr nu/nu mice (8 to 12 weeks) were inoculated with 1×10^6 SW620 tumor cells in 50% Matrigel subcutaneously in the hind flank. The cell Injection Volume was 0.1 mL/mouse. When tumors reached an average size of 100-150 mm^3 a pair match was performed, and treatment started. Group sizes were N=6 for the non-treated group, N=5 for the vehicle groups and N=8 for the pept-in and positive control groups. Tumor growth was monitored by caliper measurement twice per week. Model response was monitored by Irinotecan dosed once per week at 100 mg/kg intraperitoneally for 3 weeks.
To assess whether the RAS-targeting pept-ins are able to attenuate growth of KRAS G12V-driven tumors in vivo, a subcutaneous xenograft model of human KRAS G12V colorectal cancer (SW620) was used. Once the tumors reached 100-150 mm^3 in size, pept-ins were administered directly into the tumor mass by intratumoral injection three times per week during two weeks at two different doses (20 μg and 200 μg).

[3] = test system: NCI-H441 spheroid cultures; experiment: Single-dose viability screen on NCI-H441 suspension spheroid cultures (3D, CellTiter Glo 3D); assay type: cell-based, human; conditions: NCI-H441 spheroids, single dose 25 μM, 5 days
Procedure: For the single-dose viability screen on spheroid cultures, 1000 cells were seeded per well in black Ultra-Low Attachment (ULA) round-bottom 96-well plates (Corning) in 75 μL full growth medium. The day after seeding, spheroids were treated by addition of 50 μl of full growth medium containing the indicated test compounds so that the final concentration after adding was 25 μM. Technical duplicates were included for all experimental pept-in conditions 5 days after treatment viability was assessed using the CellTiter Glo 3D reagent (Promega) according to the manufacturer's instructions, with the following adaptation: 80 μL of reagent was added per well. Readout was performed on a Clariostar plate reader (BMG). […]
As previous reports have shown that adherent growth of KRAS mutant cells lines might attenuate their sensitivity to KRAS inhibition or knockdown (Fujita-Sato et al. Cancer Res. 2015, vol. 75, 2851-62; Patricelli et al. Cancer Discov. 2016, vol. 6, 316-29; Vartanian et al. J Biol Chem. 2013, vol. 288, 2403-13), we complemented the screen on adherently growing NCI-H441 cells with a screen on suspension spheroid cultures of the same cell line. […] Viability of the spheroid cultures was determined after 5 days of exposure using the CellTiter Glo 3D reagent from Promega. […]

[4] = target: T6, KRAS of NCI-H441 lung adenocarcinoma cells (KRAS G12V mutant) (human, UniProt P01116 1-186); experiment: cell-based or functional assay
[5] = target: T6, KRAS of NCI-H441 lung adenocarcinoma …; experiment: cell-based or functional assay; remark: listed apart in the source

| Molecule | pull-down of KRAS G12V (G12V mutant KRAS) | Normalized viability NCI-H441 4 days of exposure to 25 µM (%) [4] | IC50 on viability of adherently growing NCI-H441 cells (CellTiter Glo, 3 days) [5] | further results |
| --- | --- | --- | --- | --- |
| 04-004-N011: biotinylated version of pept-in 04-004-N001 (KLSVFAIKGSKLSVFAIK; also: biotinylated version of 04-004-N001) | efficient pull-down |  |  | binding to KRAS G12D (KRAS G12D mutant): less efficient; pull-down of KRAS G12C (G12C mutant KRAS): efficient pull-down; binding to KRAS G13D (KRAS G13D mutant): less efficient |
| 04-006-N007: biotinylated version of a biologically active pept-in harbouring an APR window containing the G12V mutant site (04-006 series) (KVVVGAVKGSKVVVGAVK; also: biotinylated version) | notable pull-down was only observed for the G12V mutant KRAS |  |  |  |
| 04-015-N026: biotinylated version of a biologically active pept-in harbouring an APR window containing the G12V mutant site (04-015 series) (KVVVGAVGKGSKVVVGAVGK; also: biotinylated version) | notable pull-down |  |  | pull-down of KRAS G12C (G12C mutant KRAS): notable pull-down |
| 04-015-N032: RAS-targeting FITC-labelled version of pept-in 04-015-N001 (KVVVGAVGKGSKVVVGAVGK; also: FITC-labelled version of 04-015-N001) |  |  |  | association with mCherry-labelled KRAS [1]: associates with mCherry-labelled KRAS |
| 04-033-N003: biotinylated version of a biologically active pept-in harbouring an APR window containing the G12V mutant site (04-033 series) (KVVVGAVGVGKGSKVVVGAVGVGK; also: biotinylated version) | notable pull-down was only observed for the G12V mutant KRAS |  |  |  |
| CC(=O)N[C@@H](CCCCN)C(=O)N[C@H](C(=O)N[C@H](C(=O)N[C@H](C(=O)NCC(=O)N[C@@H](C)C(=O)N[C@H](C(=O)NCC(=O)N[C@@H](CCCCN)C(=O)NCC(=O)N[C@@H](CO)C(=O)N[C@@H](CCCCN)C(=O)N[C@H](C(=O)N[C@H](C(=O)N[C@H](C(=O)NCC(=O)N[C@@H](C)C(=O)N[C@H](C(=O)NCC(=O)N[C@@H](CCCCN)C(N)=O)C(C)C)C(C)C)C(C)C)C(C)C)C(C)C)C(C)C)C(C)C)C(C)C [04-015-N001] |  |  |  | reduction in average tumor volume at day 22 ([2]; 20 μg intratumoral): significant reduction in average tumor volume; reduction in average tumor volume at day 22 ([2]; 200 μg intratumoral): significant reduction in average tumor volume |
| Ac-KLSVFAIKGSKLSVFAIK-NH2 [04-004-N001] |  |  |  | reduction in average tumor volume at day 22 ([2]; 20 μg intratumoral): only significant for the 200 μg dosing group; reduction in average tumor volume at day 22 ([2]; 200 μg intratumoral): only significant for the 200 μg dosing group |
| Ac-KLVVVGAVKGSKLVVVGAVK-NH2 [04-014-N001] |  |  |  | activity in the spheroid setting [3]: did not display activity |
| Ac-KVVVGAVGKGSKVVVGAVGK-NH2 [04-015-N001] |  | 23.3% | ~10 µM |  |
| Ac-KVVVGAVGVGKGSKVVVGAVGVGK-NH2 [04-033-N001] |  | 5.2% | ~10 µM |  |
| Ac-KVVVGAVKGSKVVVGAVK-NH2 [04-006-N001] |  | 8.7% | ~10 µM |  |
| Ac-KLSVFAIKGSKLSVFAIK-NH2 [04-004-N001] |  | 6.1% | ~10 µM |  |
| Ac-KLVVVGAVKGSKLVVVGAVK-NH2 [04-014-N001] |  | 9.1% | ~10 µM |  |
